The results in this text go back to paper PMC3000613 (Biochemistry, 2010).

The target of one experiment is T1, GST-Obsc_(6231–6260) (rat).
T1 chain: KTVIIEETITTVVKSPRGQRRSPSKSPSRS
As to the kind of experiment: SPR. A general note: In SPR one partner is held on a chip, and binding of the other changes the refractive index at the surface.

For another experiment, the target named is GST-Obsc_(6316–6345) (rat). Briefly: SPR.

B1: MBP-sAnk1_(29–155) (domain or fragment)
chain: VKGSLCFVLKHIHQELDKELGESEGLSDDEETISTRVVRRRVFLKGDELQNIPGEQVTEEQFTDEQGNIVTKKIIRKVVRQVDSSGAIDTQQHEEVELRGSGLQPDLIEGRKGAQIVKRASLKRGKQ
For orientation: Kd means a measure of binding affinity in units of concentration. Low readings indicate tighter binding, high ones weaker binding. The term koff denotes the first-order rate constant of dissociation. For orientation: kon means a measure of how fast the partners come together. Molecule B1 had a Kd with GST-Obsc_(6231–6260) of 384 ± 53 nM. Moreover, in the experiment with GST-Obsc_(6316–6345), binding was characterised by a dissociation constant (Kd) of 133 nM, the koff stood at 0.000792 s⁻¹ and the kon was determined as 6290 M⁻¹ s⁻¹.
